According to patent US20240382586A1 (TAKIS S R L, published 2024):
Changes are numbered by the printed parent chain.

B1: humanised 9-8F2-B11 (VH3VL3) (antibody, V domains shown)
VH: QVQLVQSGAEVKKPGASVKVSCKASGFNIKETYVHWVRQAPGQGLEWMGRIDPAIGDSEYAQKFQGRVTMTRDTSISTAYMELSRLRSDDTAVYYCARTWGPFFDFWGQGTLVTVSS
VL: DIVMTQTPLSLSVTPGQPASISCKSSQSLLHSHGNTFLHWYLQKPGQSPQVLIYKVSSRFSGVPDRFSGSGSGTDFTLKISRVEAEDVGVYYCSQSTHVPYTFGQGTKLEIK
notes: also called 9-8F2-B11 humanised
B2: 9-2H7-D7 (mouse) (antibody, V domains shown)
VH: EVQLQQSGPELVKPGASVTISCKTSGYTFTEYTMYWVKQSHGKSLEWIGGINPYIGDTSYNQNFKGKATLTVDKSSSTAYMELRSLTSEDSAVYYCARDGYPDYSAMDFWGQGTSVTVSS
VL: DIVMSQSPSSLAVSVGEKVTMNCKSSQNLLYSSNQKNYLAWYQQKPGQSPKLLIYWASTRESGVPDRFTGSGSGTDFTLTISSVKAEDLAVYSCQQYYTYPWTFGGGTKLEIK
B3: 9-2H7-D7 chimera (antibody, V domains shown)
VH: B2 VH
VL: B2 VL
B4: 9-7A4-C2 (mouse) (antibody, V domains shown)
VH: EVQLQQSGPELVKPGASVKISCKTSGYTFTEYTMYWVKQSHGKSLEWIGGINPNNGDSSYIQKFKGKATLTVDESSSTAYMELRSLTSEDSAVYYCARDGYPNSYAMDYWGQGTSVTVSS
VL: B2 VL with E17D, N22S, N28S, S33T, S82G, K85R, A86P, S93Y, T99S
B5: 9-8F2-B11 (mouse) (antibody, V domains shown)
VH: EVQLQQSGAELVKPGASVKLSCTASGFNIKETYVHWVKQRPEQGLEWIGRIDPAIGDSEYDPKFQGKATVTADTSSNTAYLQLSRLTSEDTAVYYCARTWGPFFDFWGQGTTLTVSS
VL: DVVMTQTPLSLPVSLGDQASISCRSSQSLVHSHGNTFLHWYLQKPGQSPKVLIYKVSSRFSGVPDRFSGSGAGTDFTLKISRVEAEDLGVYFCSQSTHVPYTFGGGTKLEIK

Key:
[1] = biological target: SARS-CoV-2 spike, African variant B.1.351 (on pseudovirus) (SARS-CoV-2); experiment: cell-based or functional assay
[2] = biological target: SARS-CoV-2 spike, variant N501Y (B.1.1.7, British) (on virus or pseudovirus) (SARS-CoV-2, UniProt P0DTC2 14-1273); experiment: cell-based or functional assay

Binder | IC50 (ng/ml), pseudovirus neutralisation, African B1.1.351 [1] [ng/mL] | IC50 (ng/ml), pseudovirus neutralisation, British B1.1.7 [2] [ng/mL]
B1 | 12000 | 11
B2 | – | 40
B3 | 21 | 11
B4 | 20 | 18
B5 | – | 7.7
